# Publication PMC3433589 (Biochemistry, 2012)
# Key:
# [1] = target: T1, human Glutaminase Interacting Protein (GIP) (human, UniProt O14907 1-124); test: NMR titration
# T1 sequence (looked up): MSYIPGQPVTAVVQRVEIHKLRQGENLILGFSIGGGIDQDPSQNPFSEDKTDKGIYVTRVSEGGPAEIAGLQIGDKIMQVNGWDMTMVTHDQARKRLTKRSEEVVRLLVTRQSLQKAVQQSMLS
# [2] = target: T1, human Glutaminase Interacting Protein …; test: phage display selection
binder,measurement,setting,value
ESSVDLLDG [ESSVDLLDG peptide (synthetic)],binding result,[1],binds
ESSVDMIGD [phage clone displaying ESSVDMIGD],binding result,[2],binds
GYETSLDSN [phage clone displaying GYETSLDSN],binding result,[2],binds
GTNLDGNGD [phage clone displaying GTNLDGNGD],binding result,[2],binds
DSNLDVSVE [phage clone displaying DSNLDVSVE],binding result,[2],binds
GGNLDVNVG [phage clone displaying GGNLDVNVG],binding result,[2],binds
GSSLDVTDN [GSSLDVTDN peptide (synthetic)],binding result,[1],binds
GSSSVDVDG [phage clone displaying GSSSVDVDG],binding result,[2],binds
ASSSVDDMA [phage clone displaying ASSSVDDMA],binding result,[2],binds
GSGTDLDAS [phage clone displaying GSGTDLDAS],binding result,[2],binds
ASSSVDDMA [ASSSVDDMA peptide (synthetic)],binding result,[1],binds
DGNLDSYDN [phage clone displaying DGNLDSYDN],binding result,[2],binds
GSSVDLVGD [phage clone displaying GSSVDLVGD],binding result,[2],binds
GSSLDVTDN [phage clone displaying GSSLDVTDN],binding result,[2],binds
GSSLDVTSE [phage clone displaying GSSLDVTSE],binding result,[2],binds
GSGTDLDAS [GSGTDLDAS peptide (synthetic)],binding result,[1],binds
VSNLDTTND [phage clone displaying VSNLDTTND],binding result,[2],binds
AYESSVDDN [phage clone displaying AYESSVDDN],binding result,[2],binds
ESSVDLLDG [phage clone displaying ESSVDLLDG],binding result,[2],binds
GSMNLDVQS [phage clone displaying GSMNLDVQS],binding result,[2],binds
AISSVDSMG [phage clone displaying AISSVDSMG],binding result,[2],binds
